Measured values from the DeepSol protein solubility set.

Experiment: soluble on expression in E. coli; label from the status in PepcDB or PDB records

Row | Sequence | soluble on expression in E. coli
1 | KGKDDAGEKPDEPADPCGLALQVQAQGTLEQLEAELTGAGQGLALEARAGLLPQAPFPLRTASLKLTREDKSSLAATLDWQPQPGQPGRDRVVATFEAERLDLQRLAGEAIPPAMLSARGGLDAEVDDLSSLHRATLTLDVTKGSSWNRHPLAGKVAASVSALGDPPGAFATAAPAQPHALPGGLWVDQLDVDLQLGPNRVRAQGKLDERAGALKLDAQAPRLDAFWPGIPGAASVKAALDGALARHRGRIEAAYTPADARARVLGRARAQAQLEFSGGWGAGPAAEGAAAGWRGSVSRLTADSAGFALALERPVTLAYVPEALAPQWQWQVGATTLALTFPDKQRVALAHAASRGGAGRWETAGRADALVITAAMVRQILVALDPEAVARAERDSGSPVNAPVPAAQRRISLDASWDLKFAGALAGKVRVARRDGDLRIPGDPPIPLGLRTLVLEANATPTGGQASRLDARLDMATARMGAINGTASATLGGLALDPRQPIRVALDADVTDLAWLGLFVGDTLEVGGMLKANVRAQGSLDGKWNASGTVNGDKLRVVRIDDGVRLIDGMLRARLQDDRVILDSLRFPASLRVMPAEWRTREWVSTNPDAKGGYLEATGQWELSAARGQVRLQLHRFPALQRSDRYGMVSGVVTLDAALPRISINGDITADAGWVSLEILQGVPTLDDDVKVVRAGQKNAQGDGPPLQIDMNLKVDMGPRFYITGMGLDAGLLGSIQIRLQEGRLTGYGALRTRGGGIEAYGQKLRLRRGTLTFQGRLDNPLLDIEALRTGEQVEAGVRVAGTAQRPRIDLVSYPDVSDVEKLSWLVLGRGPDASGGDTALLLSVGTALLGGGQPFYKQFGLDDVSVRSGAIGSSGSLLPDRTVAAGVNRDSDADLATQFLVASKRFANGITLSVEQALAGSETVGRA | not soluble
2 | MITLFTFGPSFGLPDASPFVMKAELLLKMAGLPYQTARGNLRRAPKGKLPYLDDMGRIVADSTLIRWHIEKTYHVDFDEGLSPAERGTAWAVEKLMEDNLYWAVARVRWLERDNFERGPAQFFNVVPGPLRGLVKVLVRRKVRQMLWAQGLGRHSEQDMTAMAVQGIKAITDILGDKPYLMGNNPCGADATLFAFAASLLSPVFETPIRAAAESHPNLIAYMARMRTRYYPDFQGSGVFAPASAATAGRPEAAFGQQLEHHHHHH | soluble
3 | MKFFDREREINEILHILNREPDDIYFIYGPLNSGKTALIKHIIENKLSDDYKVFYINFRTYLISEKREFIEAIFTTKKDDFFEKIKDKDEVLNLITKGVRILTGIPIPEVEFDKLFEEKINDAFQYLNSLLLEVKKSGKKPILIFDELQMIKDVVLNTENQRFSAFPSLRFGNGQKYLLKELFQFLVSLTKEQHLCHVFCLSSDSLFIEYVYSTGELEGRAKYLLVDDFDKETALKFMDFLAVENNINLTNEDKELIYSYVGGKPKDIKYVVEESKFKDLREILEFMLKDAVQKLDMFLDMLNYSKPKVDVGDEVIEIKKDNVIEALKLFKDEYEVSKKHIPVPVYTYLIKRNILFLNPIEGILKPQSYLVWNAIKRLL | not soluble
4 | MIDHAHLRLFQFCDSQFPTGAFSHSFGLETYIQRDTVHDEESFQQWLVLFLNEQLTYADGLTMRLVYDALNENDTKAILKLDRILFVQNLPKETRQGSKQMGNRMVKLASELYDSDWINWYHAQMKDKKASLHPAICFTMLGHHLGVDIETIIDYYLYQNVSSLTQNAVRAIPLGQTAGQRIVHKMIPIMKETRDHIMTIPASQLGITAPGLEINQMEHENVNVRIFISLEHHHHHH | not soluble
5 | TLYDKVWDQHKVTTLPNGQDQLFVGLHLIHEVTSPQAFGMIKERGLEVARPDLTHATVDHIVPTANQDRPYSDDAAETMMAELEENVRDAGIQFSDPTTGDQGIVHVIGPEQGITQPGKTIVCGDSHTSTHGAFGALAFGIGTSQIRDVLATQTIAMEKQKV | not soluble
6 | METIKALEKFMEFDRLQKDCSDKLDRERERRMKAEREIARKNCGGNPCERELKSERSNVKRLEYQLDAEKEKVKFYKRELERDRYLSSRYLTSSSDPHEKPLPNYTFPRIKNVSPLTTEATGSVEVAPPSTDVTEPISDVTPSVDVEPEHPPAF | not soluble
7 | MGSDKIHHHHHHMDTMVSNSQTYLKILADLIKIKSVNDHELEVAEYLQDLFQENGIEAKILPLEGQRANLVAEIGEGAPVLAVSGHMDVVDPGNLAAWDNDPFTMTEKDGKLFGRGITDMKAGLAALVIAMIELKKQGLPKKGTIRLLATAGEEVGEEGSAAFYRDHYMEDAAGLLIAEPSTVYGTASEQKGSFDIKFTSKGTSVHSSTPEKGYNALVPLMQLLNEANTYFETIPAGEMGPVRFNIDVLNGGSQINSLPDLATALVNVRTIPEYDNNQVAKQIETFVKSYNANGAQINTDLIMNEFPIATSPSNQLVKIIQSLGKEYAGRDIVVAASPGITDASNLAKDKPHDFPFAVYGPGDGSQHQVNESLPKQMYLDFIEIYQKLFIEFLEK | not soluble
8 | AHHHHHHGSLEVQGISKKWKDFHLKDISFSVMDGEYFIVLGPSGAGKTVLLEIIAGIIPPDGGKVLLDGKDITLLPPEKRGIAYVPQNYALFPNMSVFDNIAFGLKVRRVPRSEIEKRVLEISEVLGIRHLLHRKPRTLSGGEQQRVAVARALVIEPEIILLDEPFANLDVQIRSRLINEMKRWRRELGFTAIHVTHSFEEALALGDRVGIMLNGKLVQVGEIREVFSRPNSEEVAKFLGFENIIEGIADGRVLHVGKLRIELPLEAKGRVRIGIRPEDILISTERIKTSARNVFKAKVEAIEDVGPLVKLTLNVCDITLRAFITRSSLVELGIEEGKEVYASFKASAIHVF | soluble
9 | MKIRSTALVKGFRQSTPYVNAHRGKTMVIMLGGEAVAHNNFGNIINDIALMHSLGIKVVVVYGARPQINQLLEKQDLTTPYHKNIRITDEAALSVVMQAAGQLQLAITARLSMSLNNTPMAGTQLNVVSGNFVIAQPLGVDDGVDYCHSGRIRRIDTDAINRTLDQGSIVLLGPIASSVTGECFNLLSEEVATQLAIKLGADKLIGFCSEQGVIDDNGNAVAELLPIEAEHVIKTLSENHASDSDYNTGTLRFLKGSIAACRAGVPRSHLISYKVDGALIQELFSFDGIGTQVVMASAEQVRQAGIDDIGGILELIHPLEEQGILVRRSREQLEQEIGKFTIIEKDGLIIGCAALYPYSEERKAEMACVAIHPDYRDGNRGLLLLNYMKHRSKSENINQIFVLTTHSLHWFREQGFYEVGVDYLPGAKQGLYNFQRKSKILALDL | not soluble
10 | MGSDKIHHHHHHMTGDATPPVGLRFAQDKTHEVFMKRYRHTQILALLETRSAIRATEAAEMLGVSVGTIRRDMAELEAGGYLNRTHGGAFAAIEGEAGFMRRTCWNRDKKRVIGQAAAAHISSGSVVFIDGGTTPEAMLPFLVEKTSLTVVTCGLNIALQLLRWPYISTILLGGEVHAESRTVTGTLPVTQLDSFGMRFDMAVIATAGISAEHGATNRMLERLALKQLVLRNSASSILVGDSSKVNCAFLGRVAPLSAFSLCIMDDDLTDEQKAKLSEAGRFEFVPLEGSRRR | not soluble
11 | MFYLGIDAGGTKTSFMLINHLGEVLSTYTSGTCHIHQVGFDGFRKGIQEGIDKICSEINICRDDLSYSFLGLPAYGENESEKLKMNSIIAEILGENKFSCGNDVEVALAGSLAGQPGICIILGTGAIASGITNDLKTARTSGWGYICGDEGSGYWIAKKGVEIFGKQSDHRLERTALYDIFKNELKLENDFDLIFLIKDKYKQDRTKVANLAMLVYKAALKGDKYALDIYRQAAKECLLMVNGLTNQLEFTGVLNISYSGSVFNSKEFILDPLRNYLQDNYTAFNLTAPILPPIKGAALNALKLHKGEIPEGVVHNLAKEPKEILVLEHHHHHH | not soluble
12 | MGILAERLDSLSIETSSPDGQITGVFRPTSALSVHFRDGGYRGYTERGLERQLAALVASAWARYWRARQAAVAEATGEPAVPHQPWDTAGRRYRAERDRTRCEGMSAGHRVHVSHTGLRDWNVVVRDGTLSTLDEFGFAAELESGFTAAMRDHRHKLMMLRDKHLPR | not soluble
13 | MAEKKKEEKESKETEVFILKLENTTVTFTNPKLGDEVTIASLNLTNPTKDRYAFKIKCTSNQLFKIKSPVGYINPEESLTIPVYHYPATVIPENNKHYFVVYYIKAANTVKEKIPVRDLWKAAASSEGTRRVFIDFKKPELPPTEAEDGKMGDDKKKGKKDDKKEEKDGKKDEKKDGSDEEGKKDEGKGEKKEEKKDDKKDDKKDDKKEEKKEDGAKK | soluble
14 | MNFYSLSVFIALVFSFNAADGHRCHRRGNGGFSKIFDKSTIQKIVPFFLIKIQNQNKNNIF | not soluble
15 | MDSFKVVLEGPAPWGFRLQGGKDFNVPLSISRLTPGGKAAQAGVAVGDWVLNIDGENAGSLTHIEAQNKIRACGERLSLGLSRAQPVQSKPQKVQTSDKQLLRQPVPDASKQRLMEDTEDWRPRPGTGQSRSFRILAHLTGTEFMQDPDEEFMKKSREKYVLELQSPRYTRLRDWHHQRSAHVLNVQS | soluble
16 | MIKRILKIWFIIGMYELSKYLTNELIIYLQSEDDIDTAPKDFAILDDQIDLNRSFRRQIENDIAKAFEDAFNSSEKEDNLEHHHHHH | not soluble
17 | GHHHHHHAIAENLYFQSSRNPEVLWAQRSDKVYLTVALPDAKDISVKCEPQGLFSFSALGAQGERFEFSLELYGKIMTEYRKNVGLRNIIFSIQKEERSWWTRLLKSEEKPAPYIKVDWNKWCDEDEEVNSETASDDESAFVNQDSESSDDDGLLYLPDLEKARNK | soluble
18 | REGKASTVNPGNGNVPDAEDLQALFDVIYEVMPEPTVNVDGPLQAHVTNLDSSSFLGRIGLIRVHSGSLKKGQQVAWIHYDEEGNQHTKTAKIAELLRTVGVTRVPADEVVAGDIAAISGIDSIMIGDTLADLEHPVALPRITVDEPAISMTIGVNTSPLAGRGGGDKLTARVVKARLEQELIGNVSLRVLPTERPDAWEVQGRGEMALSVLVETMRREGFELTVGKPQVVTQTVDGKLFEPYEHMVIDIPSEYQGNVTQLMAARKGQMLSMDNISDEWVRMEYKVPARGLISFRTMFMTETRGTGIANSYSEGLDEWAGEIKGRATGSLVADRSGQITAYALQQLADRGNFFVEPGTEAYEGMVVGANNRDEDMDVNITREKKLTNMRSATADATVTLAKARSLSLDEAMEFCGQDECVEVTPDVLRVRKVILNATERGRARAREKARNK | not soluble
19 | MGSDKIHHHHHHMTVTDLSKKPLLLLDHVTMQFGGLVAVDDFTNEIREGELVGLIGPNGAGKTTVFNVITGIYTPTKGRIVFNDIDITGLRPYQITHLGIARTFQNIRLFSDMTVLENVLVAQHHVLSNPDADRILVKHGKPRKGHGRFWFWRAVTKIGYLKKEKEMVERAKDLIKRVGLEKVMYEKASSLPYGEQRKLEIARALATEPKLILLDEPAAGMNPKETEDLMEFIKQIRKDFNLTVLLIEHDMKVVMGICERIIVMDYGRIIAEGTPKEIQNDPRVIEAYLGREWESV | not soluble
20 | MKDLSSIVAKFNTQGTITEIKPLGAGLINDTYKVNTQEADAPDYVLQRINHAIFQNVEMLQSNIAAVTGHIRKKLTEAGEADIDRKVLSFLATEEGKTYWFDGESYWRVMVFIPRAKTYETVNPEYSNYAGEAFGNFQAMLADIPETLGETIPDFHNMEFRLKQLRDAVAANAAGRVAEVQYYLDEIEKRADEMCKAERLFREGKLPKRVCHCDTKVNNMMFDEDGKVLCVIDLDTVMPSFIFSDYGDFLRTGANTGDEDDKDLNRVNFNMEIFKAFTKGYLKGAKSFLTPIEIENLPYAAALFPYMQCVRFLADYINGDTYYKIKYPEHNLVRTKAQFKLLQSVEEHTPEMVAFINECLVNGLEHHHHHH | soluble
